Reference: article PMC7794362, “Structural basis for distinct inflammasome complex assembly by human NLRP1 and CARD8” (Nature Communications, 2021)

T1: NLRC4-CARD without SNAP (filament seed) (human, UniProt Q9NPP4 1-102)
T1 construct: CARD domain of human NLRC4, residues 1-102, construct without SNAP tag; source: E. coli BL21(DE3), purified (Ni-NTA, SEC), oligomeric seed fraction
T1 sequence (looked up): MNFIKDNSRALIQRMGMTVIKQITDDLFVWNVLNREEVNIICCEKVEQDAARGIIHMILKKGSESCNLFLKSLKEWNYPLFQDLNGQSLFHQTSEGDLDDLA

B1: NLRC4-CARD filament (SNAP tag cleaved off), solved by cryo-EM (domain or fragment, human, UniProt Q9NPP4 1-102, looked up)
chain: T1 sequence (looked up)
notes: CARD domain of human NLRC4, residues 1-102; also called NLRC4-CARD thin filament; source: E. coli BL21(DE3), purified; filaments grown from SNAP-tagged monomer with seeds, SNAP cleaved by 3C protease, Superose 6; not shown: SNAP, C-terminal, cleaved
B2: recombinant CARD8-CARD (451-537) (domain or fragment, human, UniProt Q9Y2G2-5 451-537, looked up)
chain: AAFVKENHRQLQARMGDLKGVLDDLQDNEVLTENEKELVEQEKTRQSKNEALLSMVEKKGDLALDVLFRSISERDPYLVSYLRQQNL
notes: CARD domain of human CARD8, residues 451-537; the numbers fit the 537-residue isoform; Called 'untagged' in the seeding experiment, there meaning without the SNAP tag; also called CARD8-CARD filaments; CARD8-CARD without SNAP; source: E. coli BL21(DE3), purified (Ni-NTA, SEC)
B3: CASP1-CARD-SNAP (domain or fragment, human, UniProt P29466 1-92, looked up)
chain: MADKVLKEKRKLFIRSMGEGTINGLLDELLQTRVLNKEEMEKVKRENATVMDKTRALIDSVIPKGAQACQICITYICEEDSYLAGTLGLSAD
modifications: Alexa Fluor 647 (BG-Alexa dye) on the SNAP tag in the native gel assay
notes: CARD domain of human caspase-1, residues 1-92; A 3C protease site lies between the CARD and the SNAP tag; also called SNAP-tagged CASP1-CARD; fluorescently labeled CASP1-CARD; not shown: SNAP, C-terminal, kept
B4: recombinant NLRP1-FIIND^UPA-CARD (a.a. 1213-1473), bacteria-derived (domain or fragment, human, UniProt Q9C000 1213-1473, looked up)
chain: SPLGVLLKMIHNALRFIPVTSVVLLYHRVHPEEVTFHLYLIPSDCSIRKAIDDLEMKFQFVRIHKPPPLTPLYMGCRYTVSGSGSGMLEILPKELELCYRSPGEDQLFSEFYVGHLGSGIRLQVKDKKDETLVWEALVKPGDLMPATTLIPPARIAVPSPLDAPQLLHFVDQYREQLIARVTSVEVVLDKLHGQVLSQEQYERVLAENTRPSQMRKLFSLSQSWDRKCKDGLYQALKETHPHLIMELWEKGSKKGLLPLSS
notes: C-terminal auto-cleavage fragment (FIIND^UPA-CARD) of human NLRP1, a.a; 1213-1473; also called NLRP1-FIIND^UPA-CARD filaments; SNAP-NLRP1-FIIND^UPA-CARD
B5: recombinant NLRP1-CARD (filament solved by cryo-EM) (domain or fragment, human, UniProt Q9C000 1374-1466, looked up)
chain: DAPQLLHFVDQYREQLIARVTSVEVVLDKLHGQVLSQEQYERVLAENTRPSQMRKLFSLSQSWDRKCKDGLYQALKETHPHLIMELWEKGSKK
notes: CARD domain of human NLRP1, construct 1374-1466; the results say that trimming of the last eight a.a; (1466-1473) stabilised the homogeneous single filament; two CARD constructs (1374-1466, 1374-1473) were cloned; also called NLRP1-CARD core filament; source: E. coli BL21(DE3), purified (Ni-NTA, SEC), concentrated to ~400 uM

What was measured:
[1] = molecular target: the molecule itself; assay: cryo-EM structure; helical reconstruction of CARD filaments; ~2 mg/ml on Quantifoil R1.2/1.3 grids, Titan Krios 300 kV, RELION 3.0
CASP1-CARD-SNAP = molecular target: B3; assay: native gel or EMSA; in vitro oligomerization assay: Alexa Fluor 647-labelled monomeric SNAP-ASC-CARD or CASP1-CARD-SNAP (10 uM) mixed with 20 or 5 uM seed oligomer for 15 min at room temperature; Bis-Tris native PAGE, fluorescence scan; details: both partners purified
[2] = molecular target: T1, NLRC4-CARD without SNAP (filament seed); assay: as above; details: both partners purified
[3] = molecular target: the molecule itself; assay: as above
[4] = molecular target: the molecule itself; assay: negative stain EM; recombinant NLRP1 constructs at various concentrations (Fig. 1e, f); samples below ~200 uM; NLRP1-CARD alone or with FIIND^UPA at 1:1 molar ratio

## B1
[1]
  binding result: binds

## B2
[1]
  binding result: binds
CASP1-CARD-SNAP
  binding result: binds

## B3
[2]
  binding result: binds
[3]
  binding result: binds

## B4
[4]
  fold lower concentration requirement for oligomerization, against NLRP1-CARD: ≥ 50 fold

## B5
[1]
  binding result: binds
